Consider one molecule from patent US20240076386A1 (Pfizer, published 2024).

Test [1] addresses T1, mouse E-selectin extracellular domain with 10 His purification tail (mouse, UniProt Q00690 22-557).
T1 construct: also called soluable mouse E-selectin extracellular domain; muE-Selctin
T1 sequence: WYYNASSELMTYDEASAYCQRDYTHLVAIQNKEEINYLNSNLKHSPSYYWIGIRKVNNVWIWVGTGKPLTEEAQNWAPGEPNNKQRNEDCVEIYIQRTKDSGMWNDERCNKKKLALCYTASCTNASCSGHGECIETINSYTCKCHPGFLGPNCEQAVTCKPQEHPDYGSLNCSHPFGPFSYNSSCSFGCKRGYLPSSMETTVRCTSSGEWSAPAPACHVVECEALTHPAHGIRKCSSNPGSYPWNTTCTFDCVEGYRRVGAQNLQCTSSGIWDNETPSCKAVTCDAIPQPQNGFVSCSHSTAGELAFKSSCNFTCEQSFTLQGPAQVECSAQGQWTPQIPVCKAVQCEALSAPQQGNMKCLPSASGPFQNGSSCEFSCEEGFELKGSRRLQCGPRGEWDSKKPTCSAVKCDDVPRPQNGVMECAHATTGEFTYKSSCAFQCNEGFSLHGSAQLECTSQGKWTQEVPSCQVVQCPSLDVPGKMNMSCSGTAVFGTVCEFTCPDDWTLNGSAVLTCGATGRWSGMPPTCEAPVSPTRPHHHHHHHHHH
Nature of the test: antigen binding ELISA, HRP detection. The protocol:
384-well Maxisorp plates were used to capture the human and mouse His-tagged recombinant E-selectin polypeptides. The polypeptides were incubated with chimeric antibodies of varying concentrations and detected with HRP-labeled anti-human IgG1 antibodies.
Background: In an ELISA, binding on a coated surface is turned into a signal by an enzyme label.

The target in test [2] is T1, mouse E-selectin extracellular domain …. As to the kind of experiment: AlphaLISA competition vs sialyl Lewis A-PAA-biotin. The protocol: The neutralization ability of anti-E-selectin antibodies was measured in an AlphaLISA homogenous competition assay. […] This was incubated at room temperature for 15 minutes, followed by addition of 1.4 μL of human, mouse or cynomolgus monkey E-selectin added to a final concentration of 7 nM. This was again incubated at room temperature for 15 minutes. To this, 1.4 μL AlphaLISA beads was added (Ni-donor/SA-acceptor) for a final assay concentration of 10 μg/mL. This was incubated in the dark at room temperate for at least 10 hours. The plates were then read using the AlphaLISA protocol (Envision).

The target is the same in test [3]. As to the kind of experiment: SPR, antibody captured, E-selectin analyte. The protocol:
To characterize binding of antibodies to human, cynomolgus monkey, and mouse E-selectin, an antibody was diluted to 0.5 μg/mL in HBS-EP+ and captured by the anti-human IgG immobilized on flow cells 2, 3 and 4 for 30 seconds to 1 minute at a flow rate of 10 μL/minute to achieve a capture level of 70 to 300 RU. Flow cell 1 was used as a reference surface. […] HBS-EP+ buffer cycles collected for each captured antibody were used for double-referencing (Myszka D G. J. Mol. Recognition 1999; 12(5):279-84). At the end of each cycle, the entire anti-IgG surface was regenerated by a 30 second pulse of 3 M MgCl₂ and a 30 second pulse of ionic buffer (1.83 M MgCl₂, 0.92 M Urea, 1.83 M Guanidine HCl, pH 7.4) (Andersson K. Analy. Chem. 1999; 71(13): 2475-81). Kinetic assays were conducted at 25° C. at a collection rate of 10 Hertz (Hz) on a BIAcore™ T200 instrument (GE Healthcare). Rate constants and affinities were determined by fitting the data to a 1:1 binding model in BIAcore™ T200 Evaluation software version 3.0 (GE Healthcare).
In general terms: Surface plasmon resonance follows binding to a sensor surface in real time, without labels.

By EC50 is commonly meant the concentration at which the effect is half-maximal. A low value points to an effect from little substance. By Kd is commonly meant the equilibrium constant for the complex coming apart. Lower therefore signals a tighter complex. What is called koff is a measure of how fast the partners let go of each other. Read a high koff as fast dissociation. As usually defined, the kon is a measure of how fast the partners come together. A higher kon goes with faster complex formation. By t½ is commonly meant the time in which the quantity being followed falls by half. High values mean slow loss, low ones fast loss.

B1: anti-E-selectin antibody 0027 chimera (antibody, human IgG1, kappa, V domains shown)
VH: EVHLHQSGPELGRPGSSVKISCKASGYTFTDYVMNWVRQSPGQGLEWIGWINPEDYSFDSGEKFLERATLTAATSSNTVYIQLSGLTSDDTATYFCVRGGLPGDWFAYWGQGTLVTVSS
VL: DIQMTQSPSFLSASVGDRITINCKTSQNINRYLNWFQQKLGEPPKLLIYNANSLQADIPSRFSGSGSGTDFTLTITSLQPEDVATYFCLQHHFWPYTFGAGTKLELRR
notes: rat VH/VL on effector-null human IgG1 (L234A, L235A, G237A, EU) and human kappa; directed to mouse E-selectin
As for B1, the EC50 in test [1] is 0.02 nM. The molecule also yielded an EC50 in test [2] of 1 nM. In addition, in test [3], the Kd came out at 1.2 nM, the koff amounted to 0.000231 s⁻¹, the kon came to 192000 M⁻¹ s⁻¹ and the t½ is 50.2 min.
